Here are results for 83 variants from the RNAGym collection of RNA variant scans (doi:10.1093/molbev/msab373).

B1: Azoarcus group I ribozyme (parent)
chain: GUGCCUUGCGCCGGGAAACCACGCAAGGGAUGGUGUCAAAUUCGGCGAAACCUAAGCGCCCGCCCGGGCGUAUGGCAACGCCGAGCCAAGCUUCGGCGCCUGCGCCGAUGAAGGUGUAGAGACUAGACGGCACCCACCUAAGGCAAACGCUAUGGUGAAGGCAUAGUCCAGGGAGUGGCGAAAGUCACACAAACCGG

The variants in this data set derive from B1. As to the kind of experiment: reverse-splicing fitness (ratio to wild type); higher = more active; in vitro selection; Mg2+ level not given. An outline of the steps: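 An in vitro group I ribozyme library with randomized positions was T7-transcribed and gel-purified. In triplicate, 10 pmol RNA in EPPS pH 7.5 was reacted with 50 pmoles of a 30-nt RNA substrate for 1 h at 37 °C across several added MgCl2 levels (1–48 mM), then stopped with EDTA. Products were reverse transcribed from a substrate-complementary primer, PCR-amplified and sequenced (HiSeq 4000). Fitness is a variant's read proportion after selection over that before, normalised to wild type.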
For the variant C82A A111G C150G C169A, the reverse-splicing fitness was found to be 0.0102. As for C82A A111G C150G C169U, the reverse-splicing fitness turned out to be 0.0107. As for C82A A111G C150G C169G, the figure is 0.00678; as for C82A A111U A120C C150A, 0.0118; as for C82A A111U A120C C150G, 0.00909. As for C82A A111U A120C C150U, the figure is 0.0206; as for C82A A111U A120C A145G, 0.0269; as for C82A A111U A120C A145C, 0.0267. As for C82A A111U A120C A145U, the figure is 0.0284. Consider C82A A111U A120C A145C C150A C169U U176G, for which the reverse-splicing fitness came to 0.00621.

As for C82A A111U A120C A145C C150A C169U U176A, the reverse-splicing fitness was 0.0157.

Regarding C82A A111U A120C A145C C150A C169U U176C, the reverse-splicing fitness worked out at 0.0124. Consider C82A A111U A120C A145G C150G C169G, for which the reverse-splicing fitness was 0.00768. Next, C82A A111U A120C A145G C150G C169U: 0.0104. With C82A A111U A120C A145G C150G C169A, the reverse-splicing fitness worked out at 0.00936. Next, C82A A111U A120C A145G C150U U176G: 0.00822; C82A A111U A120C A145G C150U U176C: 0.0246. As for C82A A111U A120C A145G C150U U176A, the figure is 0.0126; as for C82A A111U A120C A145U C150U C169G U176A, 0.016; as for C82A A111U A120C A145U C150U C169G U176C, 0.0244. As for C82A A111U A120C A145U C150U C169G U176G, the figure is 0.00736. In the case of C82A A111U A120C A145U C150A C169G, the reverse-splicing fitness is 0.00953. As for C82A A111U A120C A145U C150A C169A, the figure is 0.0109; as for C82A A111U A120C A145U C150A C169U, 0.0109. As for C82A A111U A120C A145G C169A, the figure is 0.0113; as for C82A A111U A120C A145G C169G, 0.0103.

Take C82A A111U A120C A145G C169U: the reverse-splicing fitness is 0.0142. Next, C82A A111U A120C C150U C169A U176G: 0.00841; C82A A111U A120C C150U C169A U176A: 0.0162. Next, C82A A111U A120C C150U C169A U176C: 0.0174.

C82A A111U A120C A145U C150G C169U U176A: the reverse-splicing fitness is 0.00711. For C82A A111U A120C A145U C150G C169U U176C, the reverse-splicing fitness stood at 0.0117. Take C82A A111U A120C A145U C150G C169U U176G: the reverse-splicing fitness is 0.00741.

For C82A A111U, the reverse-splicing fitness stood at 0.299.

In the case of C82A A111U A120C A145U C150U C169A U176G, the reverse-splicing fitness worked out at 0.00837. As for C82A A111U A120C A145U C150U C169A U176C, the reverse-splicing fitness was 0.0168. On to C82A A111U A120C A145U C150U C169A U176A, for which the reverse-splicing fitness was found to be 0.0216. As for C82A A111U A120C A145C C150U U176G, the figure is 0.00643. Turning to C82A A111U A120C A145C C150U U176A, the reverse-splicing fitness was determined as 0.0118. As for C82A A111U A120C A145C C150U U176C, the figure is 0.0198; as for C82A A111G C150U C169G U176C, 0.0194. Next, C82A A111G C150U C169G U176A: 0.0188; C82A A111G C150U C169G U176G: 0.00633.

On to C82A A111U A120C A145G C150U C169G U176A, for which the reverse-splicing fitness was 0.0138. On to C82A A111U A120C A145G C150U C169G U176C, for which the reverse-splicing fitness worked out at 0.0201. Next, C82A A111U A120C A145G C150U C169G U176G: 0.00639; C82A A111G C169U U176A: 0.0153; C82A A111G C169U U176C: 0.0142. As for C82A A111G C169U U176G, the figure is 0.00547; as for C82A A111G A145U C169G, 0.00852; as for C82A A111G A145U C169A, 0.00788.

On to C82A A111G A145U C169U, for which the reverse-splicing fitness was determined as 0.0125. Next, C82A A111U A120C A145U C150G C169A: 0.00962; C82A A111U A120C A145U C150G C169U: 0.01.

Turning to C82A A111U A120C A145U C150G C169G, the reverse-splicing fitness is 0.00869. As for C82A A111G A145U C169A U176A, the figure is 0.0131; as for C82A A111G A145U C169A U176G, 0.00504. For C82A A111G A145U C169A U176C, the reverse-splicing fitness was 0.0104.

With C82A A111U A120C A145G C150U C169A U176C, the reverse-splicing fitness came to 0.018. Next, C82A A111U A120C A145G C150U C169A U176G: 0.00943. As for C82A A111U A120C A145G C150U C169A U176A, the figure is 0.0182; as for C82A A111U A120C A145U C150G C169G U176A, 0.00986; as for C82A A111U A120C A145U C150G C169G U176C, 0.00626. On to C82A A111U A120C A145U C150G C169G U176G, for which the reverse-splicing fitness turned out to be 0.00698. For C82A A111U A120C C150A C169A U176A, the reverse-splicing fitness was found to be 0.0227. As for C82A A111U A120C C150A C169A U176C, the figure is 0.0233; as for C82A A111U A120C C150A C169A U176G, 0.0108. As for C82A A111U A120C A145C C150A C169A U176G, the figure is 0.00772; as for C82A A111U A120C A145C C150A C169A U176C, 0.0164; as for C82A A111U A120C A145C C150A C169A U176A, 0.0206. For C82A A111U A120C A145C C150G U176C, the reverse-splicing fitness came out at 0.00974. Turning to C82A A111U A120C A145C C150G U176A, the reverse-splicing fitness worked out at 0.00531.

Turning to C82A A111U A120C A145C C150G U176G, the reverse-splicing fitness came to 0.0032. Next, C82A A111U A120C C150G C169A: 0.0101. As for C82A A111U A120C C150G C169U, the figure is 0.0101; as for C82A A111U A120C C150G C169G, 0.00832; as for C82A A111U A120C A145C C169A U176A, 0.0167. As for C82A A111U A120C A145C C169A U176C, the figure is 0.0175; as for C82A A111U A120C A145C C169A U176G, 0.00573. For C82A A111G A145U C150U C169A U176A, the reverse-splicing fitness was determined as 0.0133. Take C82A A111G A145U C150U C169A U176G: the reverse-splicing fitness was 0.00665. As for C82A A111G A145U C150U C169A U176C, the figure is 0.0114; as for C82A A111U A120C A145G C169G U176C, 0.0355.
